In PMC10143992, “Interkingdom Signaling of the Insect Pathogen Photorhabdus luminescens with Plants Via the LuxR solo SdiA” (Microorganisms, 2023):

Legend:
SdiA (6His-SdiA) = biological target: T1, SdiA (6His-SdiA) (Photorhabdus laumondii, UniProt Q7N9K5); assay: nanoDSF thermal shift (intrinsic Trp fluorescence […] nm); type: binding; conditions: 10 nM ligand; 0.3 mg/mL SdiA; 1.5 °C/min; versus solvent control
T1 construct: gene plu0320

[1] = system: T2, SdiA (LuxR solo, 6His-SdiA) (Photorhabdus luminescens DJC), ORF:60ed44fe; assay: SPR; conditions: SPR Biacore T200, SA chip, HBS-EP+ (10 mM HEPES pH 7.4, 150 mM NaCl, 3 mM EDTA, 0.005% Tween-20), SdiA 1.5625-200 nM, 30 uL/min, 1:1 fit; temperature not …
T2 sequence: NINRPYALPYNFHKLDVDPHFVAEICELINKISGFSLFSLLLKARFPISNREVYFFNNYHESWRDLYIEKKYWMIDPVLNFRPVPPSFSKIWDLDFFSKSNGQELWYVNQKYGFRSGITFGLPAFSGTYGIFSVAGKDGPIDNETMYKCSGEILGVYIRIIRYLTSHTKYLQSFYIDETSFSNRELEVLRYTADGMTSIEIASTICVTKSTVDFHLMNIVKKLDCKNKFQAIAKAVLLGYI

[2] = system: SdiA (LuxR solo, 6His-SdiA) (Photorhabdus luminescens DJC); assay: SPR; conditions: SPR Biacore T200, SA chip, HBS-EP+ (10 mM HEPES pH 7.4, 150 mM NaCl, 3 mM EDTA, 0.005% Tween-20), SdiA 1.5625-200 nM, 30 uL/min, 1:1 fit, temperature not …

T1 sequence (Q7N9K5 entry or part of it): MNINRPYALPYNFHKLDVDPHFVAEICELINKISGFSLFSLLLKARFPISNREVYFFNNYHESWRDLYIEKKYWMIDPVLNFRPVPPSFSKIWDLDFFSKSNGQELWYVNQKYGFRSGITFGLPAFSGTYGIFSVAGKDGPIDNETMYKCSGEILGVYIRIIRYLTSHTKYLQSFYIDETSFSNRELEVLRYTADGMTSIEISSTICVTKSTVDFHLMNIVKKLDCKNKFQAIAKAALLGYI

Molecule: CCCC(=O)N[C@H]1CCOC1=O [C4-AHL]
- DTM (SdiA (6His-SdiA)): −3.9 °C

Molecule: CCCCCCCCCCCC(=O)N[C@H]1CCOC1=O [C12-AHL]
- DTM (SdiA (6His-SdiA)): +1.6 °C

Molecule: GACACCTCTTTACATATTTAAACTATTTATTGGGAATCGAAAGGTTATTTTGCTTACTCATTATTATTCTAATAACTTTCTTTTTATATAATTAACTATTAAAGTTGAAACAGCTACTGGGATAAATCATAGTTTATATGGGAAAATTACTCATATATTTATTAGGTATTGCTTCATATAG (double strand) [PaidA promoter fragment]
- Kd [1]: 0.0044 µM

Molecule: GTCATTATTCGCTGTTCACTCATCTTTTAATGGCACAATAAGCCCTGACTTTTTACTTTAATTACCCGCTTTAGATCGAGAGGGCTATGTTAGGGTGGCAGTCTAAAAATATGCCGTATATTACTTTGGGTTAATATGGCATTGAATGGCGTAGGTTATAGGGTGGTTTAACACGAGGTTTTT (double strand) [PfliE promoter fragment]
- binding [1]: no binding

Molecule: PaidA promoter fragment
- Kd ([2]; 3.3% (v/v) plant root exudate (PRE), ka 8.2e4 /M/s, kd 1.1e-3 /s): 0.0133 µM
- Kd ([2]; no ligand, ka 3.9e5 /M/s, kd printed 1.7 x 103 /s (1.7e-3 from Kd)): 0.0044 µM

Molecule: PsdiA promoter fragment
- Kd ([2]; 3.3% (v/v) plant root exudate (PRE), ka 1.8e5 /M/s, kd 2.0e-2 /s): 0.109 µM
- Kd ([2]; no ligand, ka 1.1e5 /M/s, kd 3.1e-3 /s): 0.0274 µM
